Blank lines part the entries; values can stand above or below the substance they belong to.
Tests used:
[1] = biological target: BhuUV haem importer complex (two BhuU and two BhuV) (Burkholderia cenocepacia)
[2] = biological target: BhuU, transmembrane permease subunit (TMD) of the haem importer BhuUV (Burkholderia cenocepacia); test: crystal structure; BhuUV-T complex, nucleotide-free and haem-free, in n-nonyl-beta-D-glucopyranoside; crystallised at 20 °C, 15% PEG 2000, 0.1 M HEPES pH 7.6; 3.2 Å
[3] = biological target: BhuU, transmembrane permease subunit (TMD) of the haem importer BhuUV (Burkholderia cenocepacia); test: crystal structure; BhuUV without BhuT, nucleotide-free; 30% PEG 400, 0.1 M NaCl, 0.1 M Li2SO4, 0.1 M Tris-HCl pH 8.5, 4 °C; 2.8 Å
[4] = biological target: BhuV, nucleotide-binding ATPase subunit (NBD) of the haem importer BhuUV (Burkholderia cenocepacia); test: crystal structure; BhuUV-T complex, nucleotide-free and haem-free, in n-nonyl-beta-D-glucopyranoside; crystallised at 20 °C, 15% PEG 2000, 0.1 M HEPES pH 7.6; 3.2 Å
[5] = biological target: BhuV, nucleotide-binding ATPase subunit (NBD) of the haem importer BhuUV (Burkholderia cenocepacia); test: crystal structure; BhuUV without BhuT, nucleotide-free; 30% PEG 400, 0.1 M NaCl, 0.1 M Li2SO4, 0.1 M Tris-HCl pH 8.5, 4 °C; 2.8 Å

- ATPase activity (Vmax) of BhuUV in detergent solution on addition of haem-free BhuT (Vmax 5.0 to 7.1 μmol min^−1 mg^−1) [1]: 1.4 fold
- ATPase activity of BhuUV reconstituted in liposomes, with BhuT [1]: 1.4 fold
Substance: BhuT, periplasmic haem-binding protein (PBP), residues 40-311 (domain or fragment)

Substance: BhuU, transmembrane permease subunit (TMD) of the haem importer BhuUV (natural protein)
- stoichiometry N [2]: 2
- stoichiometry N [3]: 2

- stoichiometry N [4]: 2
- stoichiometry N [5]: 2
Substance: BhuV, nucleotide-binding ATPase subunit (NBD) of the haem importer BhuUV (natural protein)

Source: paper PMC5136619, “Crystal structure of bacterial haem importer complex in the inward-facing conformation” (Nature Communications, 2016)
